In article PMC3626604, “The C-Type Lectin of the Aggrecan G3 Domain Activates Complement” (PLoS ONE, 2013):

Target: T1, factor H (human (endogenous in normal human serum), UniProt P08603 19-1231)
T1 construct: complement factor H; also called FH
Test: ELISA; proteins coated (G3 fragments 5 µg/ml, fibromodulin 2.5 µg/ml); heat-inactivated normal human serum diluted in 50 mM Hepes pH 7.4, 150 mM NaCl, 2 mM CaCl2, 50 µg/ml BSA; 1 h at RT; detected with anti-FH
Conditions: one partner purified

T1 sequence (P08603 19-1231): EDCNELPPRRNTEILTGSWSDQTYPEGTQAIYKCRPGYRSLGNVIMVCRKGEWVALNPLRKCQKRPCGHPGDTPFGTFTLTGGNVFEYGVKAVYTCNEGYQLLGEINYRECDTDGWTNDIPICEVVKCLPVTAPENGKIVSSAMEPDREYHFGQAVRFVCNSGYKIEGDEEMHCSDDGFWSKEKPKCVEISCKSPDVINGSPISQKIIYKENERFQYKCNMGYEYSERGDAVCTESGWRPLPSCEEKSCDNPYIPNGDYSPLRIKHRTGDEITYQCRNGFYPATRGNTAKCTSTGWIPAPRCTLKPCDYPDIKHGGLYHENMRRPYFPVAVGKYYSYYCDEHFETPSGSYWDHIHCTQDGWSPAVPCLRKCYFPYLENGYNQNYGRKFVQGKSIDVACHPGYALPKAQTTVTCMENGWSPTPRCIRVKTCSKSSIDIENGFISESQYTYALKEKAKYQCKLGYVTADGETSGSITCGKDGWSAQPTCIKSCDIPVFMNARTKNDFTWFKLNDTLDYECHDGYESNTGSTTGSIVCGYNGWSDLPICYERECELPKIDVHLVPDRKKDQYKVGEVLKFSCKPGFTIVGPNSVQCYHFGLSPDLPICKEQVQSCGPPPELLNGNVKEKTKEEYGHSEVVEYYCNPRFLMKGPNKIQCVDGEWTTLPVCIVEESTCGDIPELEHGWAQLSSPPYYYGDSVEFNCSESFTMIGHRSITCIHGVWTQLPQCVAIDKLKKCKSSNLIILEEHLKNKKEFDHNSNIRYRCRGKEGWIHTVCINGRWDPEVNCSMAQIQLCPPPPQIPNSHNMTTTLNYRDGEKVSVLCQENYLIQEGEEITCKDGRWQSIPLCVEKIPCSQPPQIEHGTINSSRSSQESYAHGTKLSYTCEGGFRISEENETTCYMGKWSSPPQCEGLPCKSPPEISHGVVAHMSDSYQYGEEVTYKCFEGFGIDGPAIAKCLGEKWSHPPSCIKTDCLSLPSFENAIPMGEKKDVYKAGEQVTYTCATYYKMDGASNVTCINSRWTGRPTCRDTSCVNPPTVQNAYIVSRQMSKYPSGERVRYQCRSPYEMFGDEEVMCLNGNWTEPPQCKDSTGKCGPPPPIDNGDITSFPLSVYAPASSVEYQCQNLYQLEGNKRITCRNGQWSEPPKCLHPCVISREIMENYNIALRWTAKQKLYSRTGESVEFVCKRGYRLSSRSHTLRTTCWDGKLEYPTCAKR

binding result: binds
B1: recombinant bovine fibromodulin (natural protein, UniProt P13605 19-376, looked up)
chain: QYEEDSHWWFQFLRNQQSTYDDPYDPYPYEPYEPYPYGGEEGPAYAYGSPPQPEPRDCPQECDCPPNFPTAMYCDNRNLKYLPFVPSRMKYVYFQNNQISSIQEGVFDNATGLLWIALHGNQITSDKVGKKVFSKLRHLERLYLDHNNLTRIPSPLPRSLRELHLDHNQISRVPNNALEGLENLTALYLHHNEIQEVGSSMKGLRSLILLDLSYNHLRKVPDGLPSALEQLYLEHNNVFSVPDSYFRGSPKLLYVRLSHNSLTNNGLASNTFNSSSLLELDLSYNQLQKIPPVSTNLENLYLQGNRINEFSISSFCTVVDVMNFSKLQVLRLDGNEIKRSAMPADAPLCLRLASLIEI
notes: fibromodulin, bovine; source: recombinant
